Consider one molecule from publication PMC8131196, “Structure and dynamics of a mycobacterial type VII secretion system” (Nature, 2021).

What all share (assay): cryo-EM structure
One data set concerns the target T1, MycP5 protease (M. tuberculosis H37Rv, UniProt O53945 40-585).
T1 construct: also called mycosin
T1 sequence: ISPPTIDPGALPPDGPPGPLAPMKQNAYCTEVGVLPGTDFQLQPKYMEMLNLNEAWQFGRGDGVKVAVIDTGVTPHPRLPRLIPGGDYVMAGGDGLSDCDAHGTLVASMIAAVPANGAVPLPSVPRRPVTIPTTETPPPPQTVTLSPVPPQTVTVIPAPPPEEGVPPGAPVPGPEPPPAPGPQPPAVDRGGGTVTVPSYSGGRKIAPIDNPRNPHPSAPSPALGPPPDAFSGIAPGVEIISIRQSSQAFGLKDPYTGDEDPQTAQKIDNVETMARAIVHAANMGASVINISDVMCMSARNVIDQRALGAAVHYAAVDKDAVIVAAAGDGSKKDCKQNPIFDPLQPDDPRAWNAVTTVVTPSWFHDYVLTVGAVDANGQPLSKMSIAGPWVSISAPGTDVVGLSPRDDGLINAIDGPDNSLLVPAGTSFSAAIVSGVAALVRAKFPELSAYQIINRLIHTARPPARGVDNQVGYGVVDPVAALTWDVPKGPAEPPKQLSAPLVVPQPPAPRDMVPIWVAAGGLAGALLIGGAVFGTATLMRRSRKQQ
Conditions: both partners purified.

The data set “cryo-EM structure” deals with the molecule itself.
Another data set has as its target T2, EccC5 (M. tuberculosis H37Rv, UniProt P9WNA5 1-1391).
T2 construct: also called EccC5 ATPase; not shown: TwinStrep, C-terminal, kept
T2 sequence: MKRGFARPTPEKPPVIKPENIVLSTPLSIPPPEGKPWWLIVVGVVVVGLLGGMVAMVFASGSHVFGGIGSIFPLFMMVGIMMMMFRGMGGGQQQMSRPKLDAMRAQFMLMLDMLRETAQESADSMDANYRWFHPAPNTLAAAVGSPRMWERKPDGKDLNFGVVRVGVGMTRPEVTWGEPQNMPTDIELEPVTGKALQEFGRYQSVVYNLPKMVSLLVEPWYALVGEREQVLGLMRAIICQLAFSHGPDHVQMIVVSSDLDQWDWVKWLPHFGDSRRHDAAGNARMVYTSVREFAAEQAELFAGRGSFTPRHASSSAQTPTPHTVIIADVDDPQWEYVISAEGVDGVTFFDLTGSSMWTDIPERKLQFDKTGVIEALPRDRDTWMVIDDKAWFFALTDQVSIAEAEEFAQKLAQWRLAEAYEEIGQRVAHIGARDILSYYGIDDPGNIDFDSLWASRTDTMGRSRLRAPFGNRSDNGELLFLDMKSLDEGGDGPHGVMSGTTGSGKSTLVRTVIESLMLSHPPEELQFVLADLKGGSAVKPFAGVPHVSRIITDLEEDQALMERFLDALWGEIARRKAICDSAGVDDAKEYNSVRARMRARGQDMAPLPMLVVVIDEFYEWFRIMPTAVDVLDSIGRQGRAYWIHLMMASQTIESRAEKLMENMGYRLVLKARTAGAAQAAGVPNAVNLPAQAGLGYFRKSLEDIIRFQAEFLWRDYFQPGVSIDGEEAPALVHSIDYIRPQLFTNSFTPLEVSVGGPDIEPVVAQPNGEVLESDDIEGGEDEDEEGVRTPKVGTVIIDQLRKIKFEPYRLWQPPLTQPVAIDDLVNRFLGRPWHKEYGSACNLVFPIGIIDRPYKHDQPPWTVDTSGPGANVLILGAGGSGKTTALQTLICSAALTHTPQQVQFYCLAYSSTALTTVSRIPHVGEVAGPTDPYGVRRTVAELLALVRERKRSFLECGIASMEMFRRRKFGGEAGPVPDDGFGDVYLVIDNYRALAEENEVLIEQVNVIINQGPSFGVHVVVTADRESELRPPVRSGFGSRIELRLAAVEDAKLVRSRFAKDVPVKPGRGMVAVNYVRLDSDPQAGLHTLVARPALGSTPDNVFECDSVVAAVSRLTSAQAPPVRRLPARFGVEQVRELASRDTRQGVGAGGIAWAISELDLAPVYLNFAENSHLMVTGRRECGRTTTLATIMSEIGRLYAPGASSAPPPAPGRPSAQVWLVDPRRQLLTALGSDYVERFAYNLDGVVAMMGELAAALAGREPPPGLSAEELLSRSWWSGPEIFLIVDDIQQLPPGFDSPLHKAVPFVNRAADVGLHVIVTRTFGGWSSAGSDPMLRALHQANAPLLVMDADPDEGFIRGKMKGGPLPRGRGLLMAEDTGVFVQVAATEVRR
Conditions: both partners purified.

A further data set deals with T3, EccB5 (M. tuberculosis H37Rv, UniProt P9WNQ9 1-506).
T3 construct: also called inner EccB5; outer EccB5
T3 sequence: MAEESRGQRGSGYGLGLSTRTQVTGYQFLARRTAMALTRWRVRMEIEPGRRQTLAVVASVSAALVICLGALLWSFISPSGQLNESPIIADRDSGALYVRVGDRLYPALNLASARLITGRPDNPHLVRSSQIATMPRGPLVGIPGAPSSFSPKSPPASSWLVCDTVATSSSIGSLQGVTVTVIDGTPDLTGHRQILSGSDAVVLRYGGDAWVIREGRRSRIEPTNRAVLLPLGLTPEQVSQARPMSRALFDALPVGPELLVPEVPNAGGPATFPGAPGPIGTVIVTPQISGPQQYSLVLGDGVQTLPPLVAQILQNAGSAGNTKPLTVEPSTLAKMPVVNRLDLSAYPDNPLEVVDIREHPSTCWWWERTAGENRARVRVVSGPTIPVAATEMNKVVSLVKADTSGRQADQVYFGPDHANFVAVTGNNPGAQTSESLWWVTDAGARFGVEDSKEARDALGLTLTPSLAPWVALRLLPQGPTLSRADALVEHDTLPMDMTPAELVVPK
Conditions: both partners purified.

B1: EccD5 (natural protein)
chain: MTAVADAPQADIEGVASPQAVVVGVMAGEGVQIGVLLDANAPVSVMTDPLLKVVNSRLRELGEAPLEATGRGRWALCLVDGAPLRATQSLTEQDVYDGDRLWIRFIADTERRSQVIEHISTAVASDLSKRFARIDPIVAVQVGASMVATGVVLATGVLGWWRWHHNTWLTTIYTAVIGVLVLAVAMLLLMRAKTDADRRVADIMLMSAIMPVTVAAAAAPPGPVGSPQAVLGFGVLTVAAALALRFTGRRLGIYTTIVIIGALTMLAALARMVAATSAVTLLSSLLLICVVAYHAAPALSRRLAGIRLPVFPSATSRWVFEARPDLPTTVVVSGGSAPVLEGPSSVRDVLLQAERARSFLSGLLTGLGVMVVVCMTSLCDPHTGQRWLPLILAGFTSGFLLLRGRSYVDRWQSITLAGTAVIIAAAVCVRYALELSSPLAVSIVAAILVLLPAAGMAAAAHVPHTIYSPLFRKFVEWIEYLCLMPIFPLALWLMNVYAAIRYR
notes: also called inner EccD5; outer EccD5
Usually stoichiometry N stands for a count of units in the complex or per binding partner. Regarding B1, the binding result with MycP5 protease, with EccC5 and with EccB5 was “binds” throughout. Also, in the data set “cryo-EM structure”, the “stoichiometry N” value is 2.
